Values belong to the molecule of their own block, whether it stands above or below them.
Tests used:
[1] = molecular target: T1, four-subunit cytochrome bc1 complex (WT) in SMA nanodiscs (Cereibacter sphaeroides, UniProt Q02761+Q02762); assay: cryo-EM structure, […] Å; type: binding; settings: natively bound, co-purified; Qo site of one cyt b; isoprene tail truncated in model; redox state not determined; H-bond to Rieske His152
T1 construct: gene petB; native purification from photosynthetically grown cells, SMA lipid nanodisc, His10 tag on cyt c1, dimer; SIV 124 residues, 79-107 resolved; with Cytochrome c1; Ubiquinol-cytochrome c reductase subunit IV

[2] = molecular target: T2, cytochrome b subunit of the Rhodobacter sphaeroides cytochrome bc1 complex (Rhodobacter sphaeroides, UniProt Q02761 1-445); assay: cryo-EM structure; settings: both partners purified
T2 construct: also called cyt b; source: endogenous, R. sphaeroides grown photosynthetically; SMA-solubilised membranes, purified in native nanodiscs (Ni-NTA, sucrose gradient, SEC)
T2 sequence (looked up): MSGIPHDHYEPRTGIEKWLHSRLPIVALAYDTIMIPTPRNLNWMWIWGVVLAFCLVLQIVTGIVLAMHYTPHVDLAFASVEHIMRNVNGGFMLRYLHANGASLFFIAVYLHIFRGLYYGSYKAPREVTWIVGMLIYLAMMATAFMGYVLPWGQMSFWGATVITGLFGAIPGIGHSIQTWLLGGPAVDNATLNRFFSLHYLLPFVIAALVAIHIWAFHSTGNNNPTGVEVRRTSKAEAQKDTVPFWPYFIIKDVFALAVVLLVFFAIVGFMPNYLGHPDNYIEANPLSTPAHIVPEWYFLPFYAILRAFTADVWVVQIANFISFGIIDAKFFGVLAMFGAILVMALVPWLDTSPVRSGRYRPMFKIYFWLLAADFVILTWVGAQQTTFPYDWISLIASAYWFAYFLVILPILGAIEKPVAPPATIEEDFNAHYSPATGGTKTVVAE

[3] = molecular target: the molecule itself; assay: cryo-EM structure; purified four-subunit cyt bc1 in SMA native lipid nanodiscs, no inhibitors added, 20 mM Tris-HCl pH 8, 200 mM NaCl; C1 consensus map at 2.9 Å and a focused class at 3.75 Å (FSC 0.5)

Molecule: COC1=C(OC)C(=O)C(C/C=C(\C)CC/C=C(\C)CC/C=C(\C)CC/C=C(\C)CC/C=C(\C)CC/C=C(\C)CC/C=C(\C)CC/C=C(\C)CC/C=C(\C)CCC=C(C)C)=C(C)C1=O [U10, ubiquinone-10]
cryo-EM structure, 2.9 Å [1]: a ubiquinone-10 molecule bound in the Qo site of one of the cyt b subunits

binding result [2]: binds
B1: Rieske iron-sulfur protein subunit of the Rhodobacter sphaeroides cytochrome bc1 complex (natural protein, UniProt Q02762 1-187, looked up)
chain: MSNAEDHAGTRRDFLYYATAGAGAVATGAAVWPLINQMNPSADVQALASIFVDVSSVEPGVQLTVKFLGKPIFIRRRTEADIELGRSVQLGQLVDTNARNANIDAGAEATDQNRTLDEAGEWLVMWGVCTHLGCVPIGGVSGDFGGWFCPCHGSHYDSAGRIRKGPAPENLPIPLAKFIDETTIQLG
notes: also called Rieske subunit; Rieske ISP; source: endogenous, R. sphaeroides grown photosynthetically; SMA-solubilised membranes, purified in native nanodiscs (Ni-NTA, sucrose gradient, SEC)

B2: four-subunit Rhodobacter sphaeroides cytochrome bc1 complex (one monomer of the dimeric complex: cyt b, cyt c1, Rieske subunit, SIV) (complex)
chain 1: T2 sequence (looked up)
chain 2: AGGGHVEDVPFSFEGPFGTFDQHQLQRGLQVYTEVCAACHGMKFVPIRSLSEPGGPELPEDQVRAYATQFTVTDEETGEDREGKPTDHFPHSALENAADLSLMAKARAGFHGPMGTGISQLFNGIGGPEYIYSVLTGFPEEPPKCAEGHEPDGFYYNRAFQNGSVPDTCKDANGVKTTAGSWIAMPPPLMDDLVEYADGHDASVHAMAEDVSAFLMWAAEPKLMARKQAGFTAVMFLTVLSVLLYLTNKRLWAGVKGKKKTNV
chain 3: B1 chain
chain 4: MFSFIDDIPSFEQIKARVRDDLRKHGWEKRWNDSRLVQKSRELLNDEELKIDPATWIWKRMPSREEVAARRQRDFETVWKYRYRLGGFASGALLALALAGIFSTGNFGGSSDAGNRPSVVYPIE
notes: also called cyt bc1; cyt bc1-nanodisc complex
stoichiometry N [3]: 2

From article PMC10041115, “Cryo-EM structure of the four-subunit Rhodobacter sphaeroides cytochrome bc1 complex in styrene maleic acid nanodiscs” (Proceedings of the National Academy of Sciences of the …, 2023)
